These results are taken from patent publication US20220062371A1, “LIGAND-DRUG-CONJUGATES AS SUBSTRATES FOR SELECTIVE CLEAVAGE BY THE EXOPEPTIDASE ACTIVITY OF CATHEPSIN B” (DEBIOPHARM RESEARCH & MANUFACTURING S.A., priority 2017, published 2022).

For this assay, the target named is Recombinant human Cathepsin B (human) (UniProt P07858). The assay is described as follows: cell-based or functional assay.

Bounds are passed on as bounds.

Take “ADC1, AF-Arg-Lys(PEG4-Mal-trastuzumab)-Phe-OH (antibody)”: the T 1/2 of release of AF-Arg by Cat B was < 5 min.
